In experiment [1] the target is T1, Human MSLN (Acro Biosystems, Cat #: MSN-H5223) (human, UniProt Q13421 296-580, limits assumed).
T1 construct: extracellular domain; Bought protein; also called human MSLN protein; recombinant human MSLN ECD His-tag protein; not shown: His tag
Kind of experiment: ELISA, human MSLN protein coated on plate. On the technique in general: ELISA stands for enzyme-linked immunosorbent assay.

The target in experiment [2] is T2, cynomolgus monkey MSLN protein (Harbour BioMed, Batch #: 2019072202) (cynomolgus monkey).
T2 construct: also called recombinant cynomolgus monkey MSLN ECD His-tag protein
T2 chain: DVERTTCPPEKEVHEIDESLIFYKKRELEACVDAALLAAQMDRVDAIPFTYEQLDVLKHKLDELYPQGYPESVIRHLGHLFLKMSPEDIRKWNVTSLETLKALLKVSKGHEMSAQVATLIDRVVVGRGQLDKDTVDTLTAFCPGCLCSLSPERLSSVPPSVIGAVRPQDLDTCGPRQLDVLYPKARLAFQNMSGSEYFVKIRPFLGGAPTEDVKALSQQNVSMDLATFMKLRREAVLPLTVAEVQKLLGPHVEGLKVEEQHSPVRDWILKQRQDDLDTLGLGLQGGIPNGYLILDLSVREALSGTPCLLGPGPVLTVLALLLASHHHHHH
Put plainly: ELISA, cynomolgus monkey MSLN protein coated on plate.

T1 sequence (Q13421 other isoform, or with tags, fused parts or gaps limits assumed): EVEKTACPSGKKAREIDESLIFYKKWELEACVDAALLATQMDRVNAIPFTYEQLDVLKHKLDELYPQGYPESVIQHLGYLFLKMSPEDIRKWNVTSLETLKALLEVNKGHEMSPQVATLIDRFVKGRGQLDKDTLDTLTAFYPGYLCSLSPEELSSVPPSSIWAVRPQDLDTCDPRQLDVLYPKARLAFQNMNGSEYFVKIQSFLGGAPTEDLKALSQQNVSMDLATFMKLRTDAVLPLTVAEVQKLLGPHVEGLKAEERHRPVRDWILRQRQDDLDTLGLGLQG

B1: PR300186 (antibody, human IgG1, kappa, V domains shown)
VH: QVQLQESGPGLVKPSETLSLTCTVSGGSINNYYWSWVRQPPGKGLEWIGYIFYSGSTNSNPSLKSRVIISVDTSKNQFSLKLSSVTAADTAVYYCAREVGRIAVAGWFFDLWGRGTLVTVSS
VL: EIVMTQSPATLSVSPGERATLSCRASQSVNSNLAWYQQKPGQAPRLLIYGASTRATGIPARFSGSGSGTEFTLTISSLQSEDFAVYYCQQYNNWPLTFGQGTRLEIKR
notes: Initial antibody from Harbour H2L2 transgenic mice; also called anti-MSLN antibody PR300186
As for B1, in experiment [1], the EC50 – broadly, the midpoint of the concentration-response curve – is 0.12 nM and the Span is 3.42. Further, in experiment [2], a half-maximal effect (EC50) was put at 0.05 nM and the Span was 2.33.

B2: PR300186-2 (antibody, human IgG1, kappa, V domains shown)
VH: QVQLQESGPGLVKPSETLSLTCTVSGGSIQNYYWSWVRQPPGKGLEWIGYIFYSGSTNSNPSLKSRVIISVDTSKNQFSLKLSSVTAADTAVYYCAREVGRIAVAGWFFDLWGRGTLVTVSS
VL: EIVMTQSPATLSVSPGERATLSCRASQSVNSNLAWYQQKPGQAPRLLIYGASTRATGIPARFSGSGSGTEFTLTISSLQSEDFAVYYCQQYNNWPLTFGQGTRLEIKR
notes: PTM variant of PR300186: Heavy chain N30Q
On to B2, for which the figures for the concentration for a half-maximal effect (EC50) in experiment [1] and in experiment [2] were 0.14 nM and 0.05 nM, respectively. Besides, the Span was determined as 3.36 in experiment [1] and 2.43 in experiment [2].

B3: PR300186-6 (antibody, human IgG1, kappa, V domains shown)
VH: QVQLQESGPGLVKPSETLSLTCTVSGGSIQNYYWSWVRQPPGKGLEWIGYIFYSGSTNANPSLKSRVIISVDTSKNQFSLKLSSVTAADTAVYYCAREVGRIAVAGWFFDLWGRGTLVTVSS
VL: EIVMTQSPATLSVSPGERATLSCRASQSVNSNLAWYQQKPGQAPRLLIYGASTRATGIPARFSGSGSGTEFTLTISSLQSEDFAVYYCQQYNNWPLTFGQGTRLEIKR
notes: PTM variant of PR300186: Heavy chain N30Q and S59A
Regarding B3, in experiment [1], the half-maximal effective concentration (EC50) was 0.21 nM and the Span amounted to 3.66. In experiment [2], this molecule returned a 50% effective concentration (EC50) of 0.07 nM and a Span of 2.67.

B4: PR300186-4 (antibody, human IgG1, kappa, V domains shown)
VH: QVQLQESGPGLVKPSETLSLTCTVSGGSIQNYYWSWVRQPPGKGLEWIGYIFYSGSTQSNPSLKSRVIISVDTSKNQFSLKLSSVTAADTAVYYCAREVGRIAVAGWFFDLWGRGTLVTVSS
VL: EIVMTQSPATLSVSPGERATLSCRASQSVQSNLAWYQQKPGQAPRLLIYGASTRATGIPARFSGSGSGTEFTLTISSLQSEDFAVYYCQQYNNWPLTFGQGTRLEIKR
notes: PTM variant of PR300186: Heavy chain N30Q and N58Q, Light chain N30Q
In experiment [1], B4 showed an EC50 of 0.18 nM and a Span of 3.47. In experiment [2], this molecule yielded an EC50 of 0.07 nM and a Span of 2.53.

B5: PR300186-7 (antibody, human IgG1, kappa, V domains shown)
VH: QVQLQESGPGLVKPSETLSLTCTVSGGSIQNYYWSWVRQPPGKGLEWIGYIFYSGSTNSNPSLKSRVIISVDTSKNQFSLKLSSVTAADTAVYYCAREVGRIAVAGWFFDLWGRGTLVTVSS
VL: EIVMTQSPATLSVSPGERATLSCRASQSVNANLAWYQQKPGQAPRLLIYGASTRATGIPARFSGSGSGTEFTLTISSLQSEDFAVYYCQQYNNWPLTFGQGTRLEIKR
notes: PTM variant of PR300186: Heavy chain N30Q, Light chain S31A
As to B5, the EC50 came out at 0.14 nM in experiment [1] and 0.04 nM in experiment [2]. Besides, the Span in experiment [1] was 3.85; in experiment [2], 2.24.

B6: PR300186-10 (antibody, human IgG1, kappa, V domains shown)
VH: QVQLQESGPGLVKPSETLSLTCTVSGGSIQNYYWSWVRQPPGKGLEWIGYIFYSGSTQSNPSLKSRVIISVDTSKNQFSLKLSSVTAADTAVYYCAREVGRIAVAGWFFDLWGRGTLVTVSS
VL: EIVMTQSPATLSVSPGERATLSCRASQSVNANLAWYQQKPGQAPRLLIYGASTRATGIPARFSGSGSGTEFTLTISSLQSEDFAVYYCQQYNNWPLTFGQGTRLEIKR
notes: PTM variant of PR300186: Heavy chain N30Q and N58Q, Light chain S31A
In the case of B6, the EC50 in experiment [1] stood at 0.1 nM; in experiment [2] it was 0.04 nM. The values for the Span in experiment [1] and in experiment [2] were 3.71 and 2.19, respectively.

B7: PR300186-9 (antibody, human IgG1, kappa, V domains shown)
VH: QVQLQESGPGLVKPSETLSLTCTVSGGSINNYYWSWVRQPPGKGLEWIGYIFYSGSTNSNPSLKSRVIISVDTSKNQFSLKLSSVTAADTAVYYCAREVGRIAVAGWFFDLWGRGTLVTVSS
VL: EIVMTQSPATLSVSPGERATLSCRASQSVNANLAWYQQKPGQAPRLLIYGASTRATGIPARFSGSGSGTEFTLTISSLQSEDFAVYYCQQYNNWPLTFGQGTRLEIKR
notes: PTM variant of PR300186: Light chain S31A
For B7, in experiment [1], the EC50 is 0.11 nM and the Span was 3.85. In experiment [2], this molecule had an EC50 of 0.05 nM and a Span of 2.19.

B8: PR300186-8 (antibody, human IgG1, kappa, V domains shown)
VH: QVQLQESGPGLVKPSETLSLTCTVSGGSIQNYYWSWVRQPPGKGLEWIGYIFYSGSTNANPSLKSRVIISVDTSKNQFSLKLSSVTAADTAVYYCAREVGRIAVAGWFFDLWGRGTLVTVSS
VL: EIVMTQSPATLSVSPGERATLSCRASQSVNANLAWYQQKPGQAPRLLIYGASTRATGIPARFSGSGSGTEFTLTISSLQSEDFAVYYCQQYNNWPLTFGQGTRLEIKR
notes: PTM variant of PR300186: Heavy chain N30Q and S59A, Light chain S31A
In experiment [1], B8 showed a concentration for a half-maximal effect (EC50) of 0.13 nM and a Span of 3.87. For the same molecule, in experiment [2], the EC50 was determined as 0.04 nM and the Span was determined as 2.18.

B9: PR300186-5 (antibody, human IgG1, kappa, V domains shown)
VH: QVQLQESGPGLVKPSETLSLTCTVSGGSINNYYWSWVRQPPGKGLEWIGYIFYSGSTNSNPSLKSRVIISVDTSKNQFSLKLSSVTAADTAVYYCAREVGRIAVAGWFFDLWGRGTLVTVSS
VL: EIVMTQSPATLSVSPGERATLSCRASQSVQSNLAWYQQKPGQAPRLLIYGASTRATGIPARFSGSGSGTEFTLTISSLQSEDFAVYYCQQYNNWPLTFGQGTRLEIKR
notes: PTM variant of PR300186: Light chain N30Q
For the molecule B9, the EC50 in experiment [1] came to 0.22 nM; in experiment [2] it was 0.07 nM. The Span amounted to 3.61 in experiment [1] and 2.7 in experiment [2].

B10: PR300186-3 (antibody, human IgG1, kappa, V domains shown)
VH: QVQLQESGPGLVKPSETLSLTCTVSGGSIQNYYWSWVRQPPGKGLEWIGYIFYSGSTQSNPSLKSRVIISVDTSKNQFSLKLSSVTAADTAVYYCAREVGRIAVAGWFFDLWGRGTLVTVSS
VL: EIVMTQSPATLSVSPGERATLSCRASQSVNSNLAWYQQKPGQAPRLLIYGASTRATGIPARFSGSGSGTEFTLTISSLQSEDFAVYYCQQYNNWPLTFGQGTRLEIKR
notes: PTM variant of PR300186: Heavy chain N30Q and N58Q
In experiment [1], B10 displayed an EC50 of 0.1 nM and a Span of 3.25. In experiment [2], the concentration giving a half-maximal response (EC50) turned out to be 0.05 nM and the Span was 2.36.

The values above are taken from patent publication EP4566632A1 (Nona Biosciences (Suzhou) Co., Ltd., dated 2024).
